Assay results reported in article PMC12891039.
Each block holds one molecule with its values, some of them ahead of it.

Legend:
[1] = target: SEL1L S658P (mouse knock-in) (mouse (endogenous in MEFs and P0 liver)) (UniProt Q9Z2G6); assay: co-IP; IP of endogenous SEL1L (1 ug anti-SEL1L, Protein A agarose, overnight 4 C) from MEF lysates (WT, Sel1L^S658P, Sel1L^L709P, Sel1L^P699T, Sel1L^ERCre KO); 150 mM NaCl, 25 mM Tris-HCl pH 7.5, 0.2% NP-40, 0.1% Triton X-100; immunoblot, prey band normalised to bait
[2] = target: SEL1L S658P (mouse knock-in) (mouse (endogenous in MEFs and P0 liver)) (UniProt Q9Z2G6); assay: co-IP; IP of endogenous SEL1L from P0 mouse liver lysates (WT, Sel1L^S658P, Sel1L^L709P); same lysis buffer; DERL2 eluted with 0.1 M glycine pH 2.5; immunoblot with quantification
[3] = target: HRD1 (mouse) (mouse (endogenous in MEFs and P0 liver)) (UniProt Q9DBY1); assay: co-IP; reciprocal IP of endogenous HRD1 (anti-HRD1, Protein A agarose) from MEF lysates; same lysis buffer; immunoblot

reduction of HRD1 binding against WT [1]: 60%
reduction of HRD1 association against WT [2]: 80%
Molecule: HRD1 (mouse) (from UniProt Q9DBY1 1-612) (enzyme)

reduction of SEL1L–HRD1 binding against WT [3]: 60%
Molecule: SEL1L S658P (mouse knock-in) (from UniProt Q9Z2G6 22-790) (natural protein)

decrease of DERL2 interaction against WT [2]: 60%
B1: DERL2 (mouse) (natural protein)
chain: MAYQSLRLEYLQIPPVSRAYTTACVLTTAAVQLELITPFQLYFNPELIFKHFQIWRLITNFLFFGPVGFNFLFNMIFLYRYCRMLEEGSFRGRTADFVFMFLFGGFLMTLFGLFVSLVFLGQAFTIMLVYVWSRRNPYVRMNFFGLLNFQAPFLPWVLMGFSLLLGNSIIVDLLGIAVGHIYFFLEDIFPNQPGGIRILKTPSILRTIFDTPDEDPNYNPLPEERPGGFAWGEGQRLGG
